Measurements from patent publication US20240174758A1 (AstraZeneca / MedImmune, published 2024).
Substitutions are numbered along the chain they refer to.

How the values were obtained:
[1] = molecular target: human CCR9 (isoform not given) (human) (UniProt P51686); test: cell-based or functional assay
human CCR9B [2] = molecular target: T1, human CCR9B (human, UniProt P51686 13-369); test: binding to HEK cells expressing human CCR9B (huCCR9B), FL1 counts against Log M, methods of Example 4
T1 construct: Overexpressed on HEK cells; also called Hu B HEK; hCCR9 isoform B
T1 sequence: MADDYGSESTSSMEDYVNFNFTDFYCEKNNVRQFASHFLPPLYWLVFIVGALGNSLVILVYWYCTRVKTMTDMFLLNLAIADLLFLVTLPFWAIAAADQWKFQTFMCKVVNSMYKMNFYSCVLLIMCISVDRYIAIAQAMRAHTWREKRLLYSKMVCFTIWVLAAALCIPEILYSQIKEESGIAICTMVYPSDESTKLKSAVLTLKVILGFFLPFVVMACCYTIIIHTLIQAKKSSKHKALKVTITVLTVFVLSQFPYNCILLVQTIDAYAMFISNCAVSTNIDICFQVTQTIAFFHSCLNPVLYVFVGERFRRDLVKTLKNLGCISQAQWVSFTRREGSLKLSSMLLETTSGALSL

[3] = molecular target: CCR9 (species and isoform not stated) (UniProt P51686); test: LigandTracer on CCR9-expressing CHO K1 cells, DyLight 650 labelled IgG, bivalent (1:2) fit, about 22 C
[4] = molecular target: CCR9 (species and isoform not stated) (UniProt P51686)
rat CCR9 = molecular target: T2, rat CCR9 (rat, UniProt Q8CH33 1-369); test: cell binding by the methods of Example 4
T2 construct: Overexpressed on HEK cells; also called Rat HEK
T2 sequence: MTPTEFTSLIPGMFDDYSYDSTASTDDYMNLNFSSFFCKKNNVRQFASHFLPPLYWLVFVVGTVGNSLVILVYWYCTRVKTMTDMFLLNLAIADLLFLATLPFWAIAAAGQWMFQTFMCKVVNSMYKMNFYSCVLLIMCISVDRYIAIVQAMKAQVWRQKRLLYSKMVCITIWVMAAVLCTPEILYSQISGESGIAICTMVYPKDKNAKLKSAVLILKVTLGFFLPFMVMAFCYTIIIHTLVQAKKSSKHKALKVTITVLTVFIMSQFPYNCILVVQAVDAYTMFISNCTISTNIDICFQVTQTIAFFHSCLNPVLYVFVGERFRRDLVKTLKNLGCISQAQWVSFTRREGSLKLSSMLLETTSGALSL

mouse CCR9 = molecular target: T3, mouse CCR9 (mouse, UniProt Q9WUT7 1-369); test: cell binding by the methods of Example 4
T3 construct: whole, on cells; Overexpressed on HEK cells; also called mCCR9; Mouse HEK
T3 sequence (looked up): T2 sequence with T2M, F6L, Y17F, V60I, V64L, I189V, I197T, C272S, T283A

[5] = molecular target: human CCR9 (isoform not given) (human), P51686
cynomolgus CCR9 = molecular target: T4, cynomolgus CCR9 (cynomolgus, UniProt Q0H741 1-369); test: cell-based or functional assay
T4 sequence: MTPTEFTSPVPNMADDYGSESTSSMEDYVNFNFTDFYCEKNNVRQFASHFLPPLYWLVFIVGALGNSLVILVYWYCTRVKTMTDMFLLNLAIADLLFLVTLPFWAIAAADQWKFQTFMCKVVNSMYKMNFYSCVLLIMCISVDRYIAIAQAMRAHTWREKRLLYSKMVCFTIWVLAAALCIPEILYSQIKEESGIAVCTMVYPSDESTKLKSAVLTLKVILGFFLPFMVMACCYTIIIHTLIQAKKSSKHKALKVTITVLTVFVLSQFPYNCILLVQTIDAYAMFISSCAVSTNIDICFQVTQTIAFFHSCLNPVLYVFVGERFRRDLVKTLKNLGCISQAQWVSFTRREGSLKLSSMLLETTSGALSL

[6] = molecular target: CCR9 (species and isoform not stated) (UniProt P51686); test: cell-based or functional assay
human CCR9A = molecular target: T5, human CCR9A (human, UniProt P51686 1-369); test: binding to cells expressing human CCR9A, FL1 counts against Log M, methods of Example 4
T5 construct: Overexpressed on HEK cells; also called Hu A HEK; hCCR9 isoform A
T5 sequence: T4 sequence with E5D, V10I, V197I, M228V, S288N

human CCR9B [7] = molecular target: T1, human CCR9B; test: binding to cells expressing human CCR9B, FL1 counts against Log M, methods of Example 4
[8] = molecular target: human CCR9 (isoform not given) (human), P51686; test: cell-based or functional assay

B1: Humanised AB1020243 (AB1020243-fgl) (antibody, V domains shown)
VH: QVQLVQSGAEVKKPGASVKVSCKASGYTFTSYWMHWVRQAPGQGLEWIGVIYPGNSDTRYNQKFKGRVTITRDTSASTAYMELSSLRSEDTAVYYCTRDYYSNYVYYYAMDYWGQGTTVTVSS
VL: DIVMTQTPLSLPVTPGEPASISCRSSQSLVHSNGNTYLHWYLQKPGQSPQLLIYKVSNRFSGVPDRFSGSGSGTDFTLKISRVEAEDVGVYYCSQSTHVPWTFGQGTKLEIK
notes: For LigandTracer it was labelled with DyLight 650 on an engineered cysteine in CH2; also called humanised AB1020243 afuc
Potency, NK cell activation assay (NK-92 MI CD16a NFAT luciferase, in vitro ADCC bioassay) [1]: 0.8 nM | binding result (human CCR9B [2]): binds | koff [3]: 4.3e-05 s⁻¹ | EC50 of a CPS dose-response curve (potency; luminescence counts per second as in the NK cell activation assay of Example 4); target cells not named on the sheet (M (axis Log M; no unit in the table)) [4]: 7.3e-09

B2: AB243LO0331 (antibody, V domains shown)
VH: B1 VH
VL: B1 VL with G34T
notes: CDR-optimised humanised antibody, a-fuc huIgG1 (afucosylated in all experiments); The constant regions are not expressly tied to it
binding result (rat CCR9): no binding | binding result (mouse CCR9): no binding | IC50 (read off the curve) [5]: 0.7 nM

B3: AB243LO0326 (antibody, V domains shown)
VH: B1 VH
VL: B1 VL with S32P, G34R
notes: CDR-optimised humanised antibody, a-fuc huIgG1 (afucosylated in all experiments); For LigandTracer it was labelled with DyLight 650 on an engineered cysteine in CH2; also called CDR-optimised AB1020243
EC50, killing of cynomolgus CD4+CCR9+ PBMC (cynomolgus CCR9): 0.03 nM | CCL25 induced CCR9 internalisation (FACS) [6]: 2 nM | binding result (human CCR9A): binds | Kd [3]: 0.09 nM | binding result (human CCR9B [7]): binds | EC50, killing of PBMC [8]: 0.004 nM | EC50, killing of human CD4+CCR9+ PBMC [8]: 0.004 to 0.005 nM | binding result (rat CCR9): no binding | binding result (mouse CCR9): no binding | IC50 (read off the curve) [5]: 0.7 nM
